Measured values as given in patent US20160223554A1, “METHODS FOR DIAGNOSIS, PROGNOSIS AND METHODS OF TREATMENT” (priority 2011, published 2016).
Read-outs that look alike come from different tables or passages of the source.

Key:
AML blasts [1] = experiment: SCNP phospho-flow signaling nodes in AML PBMC (Example 2, Study No. 1); type: cell-based, human; details: for Mean Value of CRs: CR patients; for Mean Value of CRs / Mean Value of NRs: Study No. 1; for Mean Value of NRs: NR patients
Procedure: Frozen cells are thawed in a 37° C. water bath and gently resuspended in the vial and transferred to the 15 mL conical tube. The 15 mL tube is centrifuged at 930 RPM (200×g) for 8 minutes at room temperature. The supernatant is aspirated and the pellet is gently resuspended in 1 mL media A. The cell suspension is filtered through a 70 um cell strainer into a new 15 mL tube. The cell strainer is rinsed with 1 mL media A and another 12 ml of media A into the 15 mL tube. The cells are mixed into an even suspension. A 20 μL aliquot is immediately removed into a 96-well plate containing 180 μL PBS+4% FBS+CD45 Alexa 700+PI to determine cell count and viability post spin. After the determination, the 15 mL tubes are centrifuged at 930 RPM (200×g) for 8 minutes at room temperature. The supernatant is aspirated and the cell pellet is gently resuspended in 4 mL PBS+4 μL Amine Aqua and incubated for 15 min in a 37° C. incubator. 10 mL RPMI+1% FBS is added to the cell suspension and the tube is inverted to mix the cells. The 15 mL tubes are centrifuged at 930 RPM (200×g) for 8 minutes at room temperature. The cells are resuspended in Media A at the desired cell concentration (1.25×10^6/mL). For samples with low numbers of cells (<18.5×10^6), the cells are resuspended in up to 15 mL media. For samples with high numbers of cells (>18.5×10^6), the volume is raised to 10 mL with media A and the desired volume is transferred to a new 15 mL tube, and the cell concentration is adjusted to 1.25×10^6 cells/ml. 1.6 mL of the above cell suspension (concentration at 1.25×10^6 cells/ml) is transferred into wells of a multi-well plate. From this plate, 80 ul is dispensed into each well of a subsequent plate. The plates are covered with a lid (Nunc) and placed in a 37° C. incubator for 2 hours to rest.
A concentration for each stimulant that is five folds more (5×) than the final concentration is prepared using Media A as diluent. 5× stimuli are arrayed into wells of a standard 96 well v-bottom plate that correspond to the wells on the plate with cells to be stimulated.
Adding the stimulant: The cell plate(s) are taken out of the incubator and placed in a 37° C. water bath next to the pipette apparatus. The cell plate is taken from the water bath and gently swirled to resuspend any settled cells. With pipettor, the stimulant is dispensed into the cell plate and vortexed at “7” for 5 seconds. The deep well plate is put back into the water bath.
The plate is covered with foil sealer and incubated in a 37° C. water bath for 10 minutes. The plate is spun for 6 minutes at 2000 rpm at room temperature. The cells are aspirated using a 96 well plate aspirator (VP Scientific). The plate is vortexed to resuspend cell pellets in the residual volume. The pellet is ensured to be dispersed before the Methanol step (see cell permeabilization) or clumping will occur.
Cell Permeabilization: Permeability agent, for example methanol, is added slowly and while the plate is vortexing. To do this, the cell plate is placed on titer plate shaker and made sure it is secure. The plate is set to shake using the highest setting. A pipetter is used to add 0.6 mls of 100% methanol to the plate wells. The plate(s) are put on ice until this step has been completed for all plates. Plates are covered with a foil seal using the plate roller to achieve a tight fit. At this stage the plates can be stored at −80° C.
Cells are thawed if frozen. Cells are pelleted at 2000 rpm 5 minutes. Supernatant is aspirated with vacuum aspirator. Plate is vortexed on a “plate vortex” for 5-10 seconds. Cells are washed with 1 mL FACS buffer. Repeat the spin, aspirate and vortex steps as above. 50 μL of FACS/stain buffer with the desired, previously optimized, antibody cocktail is added to two rows of cells at a time and agitate the plate. The plate is covered and incubated in a shaker for 30 minutes at room temperature (RT). During this incubation, the compensation plate is prepared.

AML blasts [2] = experiment: SCNP signaling and apoptosis nodes in AML BMMC (Example 4, Study No. 2); type: cell-based, human
[3] = cited from earlier work
[4] = Total Phospho metric, Study No. 1, CRp patient included in NR group
[5] = read-out p-Stat3, metric TotalPhospho
[6] = Study No.2, patients less than 60 years old
[7] = Study No.2, patients with De Novo AML
[8] = Fold metric, Study No. 1, CRp patient included in NR group
[9] = Fold metric, all patients, Study No. 2
[10] = Study No.2, patients age 60 and older

GM-CSF
Mean Value of CRs, p-Stat3 (AML blasts [1]; [4]): 0.83
Mean Value of NRs, p-Stat3 (AML blasts [1]; [4]): 1.23
Mean Value of CRs (AML blasts [1]; [5]): 0.84
Mean Value of NRs (AML blasts [1]; [5]): 1.24
Mean Value of CRs, p-Stat3 TotalPhospho (AML blasts [2]; [6]): 1.51
Mean Value of NRs, p-Stat3 TotalPhospho (AML blasts [2]; [6]): 2.35
Mean Value of CRs, p-Stat3 TotalPhospho (AML blasts [2]; [7]): 1.51
Mean Value of NRs, p-Stat3 TotalPhospho (AML blasts [2]; [7]): 2.22

COc1cccc2c1C(=O)c1c(O)c3c(c(O)c1C2=O)C[C@@](O)(C(C)=O)C[C@@H]3O[C@H]1C[C@H](N)[C@H](O)[C@H](C)O1 [Daunorubicin]
peak plasma concentration ([3]; Daunorubicin at 25 mg/m2): 50 ng/mL
peak plasma concentration ([3]; Daunorubicin at 50 mg/m2): 200 ng/mL

CCCCCCCCCCCCCC(=O)O[C@@H]1[C@@H](C)[C@@]2(O)[C@@H](C=C(CO)C[C@]3(O)C(=O)C(C)=C[C@@H]23)[C@@H]2C(C)(C)[C@]12OC(C)=O [PMA, reference compound]
Mean Value of NRs, p-Erk (AML blasts [1]; [8]): 2.03
Mean Value of CRs, p-Erk (AML blasts [2]; [9]): 2.82
Mean Value of NRs, p-Erk (AML blasts [2]; [9]): 1.74

OO [H2O2, reference compound]
Mean Value of CRs (AML blasts [1]; read-out p-Lck, metric Fold): 0.42
Mean Value of NRs (AML blasts [1]; read-out p-Lck, metric Fold): 0.12
Mean Value of CRs (AML blasts [1]; read-out p-SLP 76, metric Fold): 1.35
Mean Value of NRs (AML blasts [1]; read-out p-SLP 76, metric Fold): 0.08
Mean Value of CRs, p-Akt (AML blasts [2]; [9]): 0.68
Mean Value of NRs, p-Akt (AML blasts [2]; [9]): 0.91
Mean Value of CRs, p-Akt Fold (AML blasts [2]; [10]): 0.45
Mean Value of CRs, p-Akt TotalPhospho (AML blasts [2]; [10]): 0.84
Mean Value of CRs, p-Plcγ2 TotalPhospho (AML blasts [2]; [10]): 1.19
Mean Value of NRs, p-Akt Fold (AML blasts [2]; [10]): 0.88
Mean Value of NRs, p-Akt TotalPhospho (AML blasts [2]; [10]): 1.33
Mean Value of NRs, p-Plcγ2 TotalPhospho (AML blasts [2]; [10]): 1.86

B1: IFNg: cytokine modulator of Jak/Stat pathway (protein, UniProt P01579 24-161, looked up)
Interferon gamma: QDPYVKEAENLKKYFNAGHSDVADNGTLFLGILKNWKEESDRKIMQSQIVSFYFKLFKNFKDDQSIQKSVETIKEDMNVKFFNSNKKKRDDFEKLTNYSVTDLNVQRKAIHELIQVMAELSPAAKTGKRKRSQMLFRG
Mean Value of CRs, p-Stat1 (AML blasts [1]; [8]): 0.45
Mean Value of NRs, p-Stat1 (AML blasts [1]; [8]): 0.91
Mean Value of CRs, p-Stat1 (AML blasts [1]; [4]): 0.67
Mean Value of CRs, p-Stat3 (AML blasts [1]; [4]): 0.68
Mean Value of CRs, p-Stat5 (AML blasts [1]; [4]): 1.62
Mean Value of NRs, p-Stat1 (AML blasts [1]; [4]): 1.27
Mean Value of NRs, p-Stat3 (AML blasts [1]; [4]): 1.3
Mean Value of NRs, p-Stat5 (AML blasts [1]; [4]): 2.35
Mean Value of CRs (AML blasts [1]; read-out p-Stat1, metric Fold): 0.53
Mean Value of NRs (AML blasts [1]; read-out p-Stat1, metric Fold): 0.90
Mean Value of CRs (AML blasts [1]; [5]): 0.74
Mean Value of NRs (AML blasts [1]; [5]): 1.30
Mean Value of CRs, p-Stag (AML blasts [2]; [9]): −0.02
Mean Value of NRs, p-Stag (AML blasts [2]; [9]): 0.2
Mean Value of CRs, p-Stat1 Fold (AML blasts [2]; [6]): 1.35
Mean Value of CRs, p-Stat1 TotalPhospho (AML blasts [2]; [6]): 2.40
Mean Value of CRs, p-Stat3 TotalPhospho (AML blasts [2]; [6]): 1.60
Mean Value of CRs, p-Stat5 Fold (AML blasts [2]; [6]): 0.68
Mean Value of NRs, p-Stat1 Fold (AML blasts [2]; [6]): 2.96
Mean Value of NRs, p-Stat1 TotalPhospho (AML blasts [2]; [6]): 4.13
Mean Value of NRs, p-Stat3 TotalPhospho (AML blasts [2]; [6]): 2.71
Mean Value of NRs, p-Stat5 Fold (AML blasts [2]; [6]): 1.67
Mean Value of CRs, p-Stat3 Fold (AML blasts [2]; [7]): −0.04
Mean Value of CRs, p-Stat3 TotalPhospho (AML blasts [2]; [7]): 1.59
Mean Value of NRs, p-Stat3 Fold (AML blasts [2]; [7]): 0.24
Mean Value of NRs, p-Stat3 TotalPhospho (AML blasts [2]; [7]): 2.48
